# Substitutions are numbered along the chain they refer to.
# B1: KWAR23 huIgG1LALA (antibody, V domains shown)
# VH: EVQLQQSGAELVKPGASVKLSCTASGFNIKDYYIHWVQQRTEQGLEWIGRIDPEDGETKYAPKFQDKATITADTSSNTAYLHLSSLTSEDTAVYYCARWGAYWGQGTLVTVSS
# VL: QIVLTQSPAIMSASPGEKVTLTCSASSSVSSSYLYWYQQKPGSSPKLWIYSTSNLASGVPARFSGSGSGTSYSLTISSMEAEDAASYFCHQWSSYPRTFGAGTKLELK
# B2: anti-SIRPα antibody 7 (antibody, human IgG1, kappa, L234A L235A, V domains shown)
# VH: RSVEESGGRLVTPGTPLTLTCTVSGFSLSSHGISWVRQAPGKGLEYIGTIGTGVITYFASWAKGRFTGSKTSTTVDLKITSPTTEDTATYFCARGSAWNDPFDPWGPGTLVTVSS
# VL: ALVMTQTPASVSAAVGGTVTTKCQASQSVYGNNDLAWYQHKPGQPPKLLIYLASTLATGVPSRFSGSGSGTQFTLTITGVQSDDAATYYCLGGGDDEADNVFGGGTEVVVKR
# notes: Chimeric: rabbit variable regions on human IgG1 LALA / kappa; also called chimeric antibody 7
# B3: anti-SIRPα antibody 9 (antibody, human IgG1, kappa, L234A L235A, V domains shown)
# VH: QSMEESGGRLVTPGTPLTLTCTASGFSLSNYGVSWVRQAPGKGLEWIGIIYGGSDITAYASWAKGRFTISKTSTTVDLTITSPTTEDTATYFCAKSYTNGMDYYNIWGPGTLVTVSL
# VL: AFDLTQTPSSVEAPVGGTVIIKCQASQSISSYLAWYQQKPGQPPKLLIYSASTLASGVSSRFKGSGSETQFPLTISDLESADAATYYCQSYYGSRSNVFGGGTEVVVKR
# notes: Rabbit variable regions on human IgG1 LALA / kappa
# B4: 29AM4-5huIgG1LALA (antibody, V domains shown)
# VH: EVQLVESGGGLVQPGGSLRLSCAASGFNISYYFIHWVRQAPGKGLEWVASVYSSFGYTYYADSVKGRFTISADTSKNTAYLQMNSLRAEDTAVYYCARFTFPGLFDGFFGAYLGSLDYWGQGTLVTVSS
# VL: DIQMTQSPSSLSASVGDRVTITCRASQSVSSAVAWYQQKPGKAPKLLIYSASSLYSGVPSRFSGSRSGTDFTLTISSLQPEDFATYYCQQAVNWVGALVTFGQGTKVEIKR
# notes: HAVT20 leader left out
# B5: anti-SIRPα antibody 15 humanized (antibody, human IgG1, kappa, L234A L235A, V domains shown)
# VH: B2 VH
# VL: ELVMTQSPSSLSASVGDRVTITCQASQSVYGNNDLAWYQQKPGEAPKLLIYLASTLATGVPSRFSGSGSGTDFTLTISGLQSEDFATYYCLGGGDDEADNVFGQGTKVEIKR
# B6: anti-SIRPα antibody 16 humanized (antibody, human IgG1, kappa, L234A L235A, V domains shown)
# VH: B2 VH
# VL: B5 VL with E1D, L2I, V3E, L11V, I21L, E44Q, G79S, S82P, Q104G
# B7: anti-SIRPα antibody 1 (antibody, human IgG1, kappa, L234A L235A, V domains shown)
# VH: QSVEESGGRLVTPGTPLTLTCTVSGIDLSSYAMSWVRQAPGKGLEWIGIISSGGITYYASWAKGRFTISKTSTTVDLKIPSPTTEDTATYFCARSLWAASNYYMALWGPGTLVTVSS
# VL: AIKMTQTPASVSAAVGGTVSINCQASEDIESYLAWYQQKPGQPPKLLIYRASTLASGVSSRFKGSGSGTQFTLTISDLESADAATYYCLGDYYSSSGDTGAFGGGTEVVVKR
# notes: as for B3
# B8: anti-SIRPα antibody 6 (antibody, human IgG1, kappa, L234A L235A, V domains shown)
# VH: QSVEESGGRLVTPGTPLTLTCTVSGIDLSSYTMTWVRQAPGKGLEWIGIIYAGGSTAYASWAKGRFTISKTSTTVDLKITSPTTEDTATYFCARSSSDGYDYFNIWGPGTLVTVSL
# VL: GVVMTQTPSSVSAAVGGTVTINCQASQSIGSWLAWYQQKPGQPPKLLIYQASKLASGVPSRFSGRGSGTHFTLTISDVQSDDAATYYCQQTVTAASNVDNAFGGGTEVVVKR
# notes: as for B3
# B9: KWAR23 mouse IgG2a (antibody, V domains shown)
# VH: B1 VH
# VL: B1 VL
# Columns and labels:
# [1] = molecular target: human SIRPαBIT (huSIRPαBIT), protein antigen (human) (UniProt P78324); assay: SPR, biotinylated antigen captured, 25 C
# [2] = molecular target: T1, human SIRPα1 (huSIRPα1), protein antigen (human, UniProt P78324 31-370, limits assumed, biotinylated in the SPR assay); assay: SPR, biotinylated antigen captured, 25 C
# T1 construct: Coated on the plate in ELISA, biotinylated and captured in SPR; also called v2
# Description: (§1) Surface Plasmon Resonance (SPR) assay: Affinity analysis was performed by single cycle kinetics analysis on a Surface Plasmon Resonance apparatus (Biacore T200 system, GE Life Sciences) at 25° C. Biotinylated SIRP antigens were captured on the surface of a chip suitable for biotinylated molecules (Sensor Chip CAP, GE Life Sciences) by injecting 5 μg/ml of the SIRP antigen in running buffer (10 mM HEPES buffer at pH 7.4 with 150 mM NaCl, 3 mM EDTA and 0.005% v/v polyoxyethylene (20) sorbitan monolaurate (Surfactant P20) for 60 sec at 10 μL/min after injection of a streptavidin conjugate (20× diluted biotin CAPture reagent, GE Life Sciences) for 60 sec at 10 μl/min. Baseline stabilization was set at 1 min after which five increasing concentrations of an anti-SIRP antibody in running buffer (10 mM HEPES buffer at pH 7.4 with 150 mM NaCl, 3 mM EDTA and 0.005% v/v polyoxyethylene (20) sorbitan monolaurate) were injected. For each step an association time of 150 sec was used, followed by a dissociation time of 1200 sec at the highest concentration only, all at a flow rate of 30 μL/min. Regeneration was performed with 6 M guanidine-HCl, 0.25 M NaOH solution (60 sec with flow rate of 30 μL/min). Double blank subtraction was performed on the observed sensorgrams using a non anti-SIRP (blank) immobilized reference flow channel and running buffer injection. Sensorgrams were fitted with a 1:1 Langmuir model for all tested anti-SIRP antibodies. The kinetic parameters (kₐ, kd and KD) were calculated using the Biacore T200 evaluation software (v3.1).
# [3] = molecular target: T2, human SIRPγ (huSIRPγ) (human, UniProt Q9P1W8 29-360, limits assumed, biotinylated in the SPR assay); assay: SPR, biotinylated antigen captured, 25 C
# T2 construct: Coated on the plate in ELISA, biotinylated and captured in SPR
# Description: as §1
# [4] = molecular target: human SIRPαBIT expressed on cells (human) (UniProt P78324); assay: flow cytometry, U937 cells
# [5] = molecular target: human SIRPαBIT expressed on cells (human) (UniProt P78324); assay: flow cytometry, ExpiCHO-S cells
# [6] = molecular target: T3, human SIRPβ1v2 (huSIRPβ1v2) (human, UniProt Q5TFQ8 30-371); assay: ELISA, antigen coated
# T3 construct: Coated on the plate in ELISA; Only the Ensembl protein number is printed; also called huSIRPß1v2
# Description: (§2) ELISA assay: Solutions of huSIRPα₁, huSIRPαBIT, huSIRPβ₁ᵥ₁, huSIRPβ₁ᵥ₂, huSIRPγ and cySIRPα in phosphate buffered saline (PBS) were each added to a multiple well black polystyrene plate for ELISA and allowed to adhere for 1 h at RT. Unbound protein was removed with three washing steps using standard washing buffer. Subsequently, blocking buffer was added to the wells. After 1 h incubation at RT, the wells were washed three times with standard washing buffer. The antibodies in buffer at various concentrations were added to the wells and incubated at RT for 1 h. Unbound antibodies were removed with three washing steps using standard washing buffer. Goat anti human IgG (Fab′)₂:horse radish peroxidase (HRP) in buffer was added to the wells and incubated at RT for 1 h. 3,3′,5,5′-Tetramethylbenzidine (TMB) was added and after sufficient colour development HCl was added. Absorbance was read at 450 nm/620 nm.
# [7] = molecular target: T2, human SIRPγ (huSIRPγ); assay: ELISA, antigen coated
# Description: as §2
# [8] = molecular target: T4, cynomolgus SIRPα (cySIRPα), protein antigen (cynomolgus monkey, UniProt A0A2K5VYQ9 31-369); assay: ELISA, antigen coated
# T4 construct: Coated on the plate in ELISA
# T4 sequence: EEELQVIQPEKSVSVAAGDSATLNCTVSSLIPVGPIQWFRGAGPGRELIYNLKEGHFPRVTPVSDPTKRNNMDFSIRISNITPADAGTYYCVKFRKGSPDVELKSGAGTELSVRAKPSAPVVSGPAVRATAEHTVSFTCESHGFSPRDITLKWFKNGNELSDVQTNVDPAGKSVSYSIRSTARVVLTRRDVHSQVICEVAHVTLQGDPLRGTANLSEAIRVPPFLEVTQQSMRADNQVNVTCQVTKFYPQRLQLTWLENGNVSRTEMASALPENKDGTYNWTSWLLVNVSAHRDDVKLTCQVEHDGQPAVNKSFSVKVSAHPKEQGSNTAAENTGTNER
# Description: as §2
# [9] = molecular target: T5, cynomolgus SIRPα expressed on cells (cynomolgus monkey, UniProt A0A2K5VYQ9 31-507); assay: flow cytometry, ExpiCHO-S cells
# T5 construct: whole, on cells; also called ExpiCHO-S (cySIRPα)
# T5 sequence: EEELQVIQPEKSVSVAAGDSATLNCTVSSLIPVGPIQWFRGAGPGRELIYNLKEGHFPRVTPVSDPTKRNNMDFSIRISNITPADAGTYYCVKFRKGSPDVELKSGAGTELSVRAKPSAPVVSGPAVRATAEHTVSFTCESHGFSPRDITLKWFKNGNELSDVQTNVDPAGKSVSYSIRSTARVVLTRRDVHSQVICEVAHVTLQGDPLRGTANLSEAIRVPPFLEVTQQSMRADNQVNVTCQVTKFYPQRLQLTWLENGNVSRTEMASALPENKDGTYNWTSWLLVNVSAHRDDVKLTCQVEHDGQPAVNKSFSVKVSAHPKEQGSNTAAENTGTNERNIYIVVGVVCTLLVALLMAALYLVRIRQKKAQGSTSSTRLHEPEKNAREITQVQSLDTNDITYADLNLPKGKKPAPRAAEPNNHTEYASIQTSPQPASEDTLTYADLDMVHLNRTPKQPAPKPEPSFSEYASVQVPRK
# From the text: Flow Cytometry: U937 cells endogenously expressing human SIRPαBIT antigen and cells derived from a non-engineered subclone that has been screened and isolated from CHO-S Chinese hamster ovary cells (ExpiCHO-S) cells expressing human SIRPα₁, SIRPαBIT or cySIRPα antigen (100,000 cells/well in a 96-well plate) were washed three times with ice-cold FACS buffer (1×PBS (LONZA) containing 0.2% v/w BSA (Sigma-Aldrich, St. Louis, Mo.) and 0.02% v/w NaN₃ (Sigma-Aldrich), followed by the addition of a concentration range of each primary mAb (50 μL/well) diluted in ice-cold FACS buffer. After an incubation time of 30 min at 4° C., the cells were washed three times with ice-cold FACS buffer and 50 μL/well secondary mAb (AffiniPure F(ab′)₂ fragment Goat-anti-human IgG-APC, 1:6,000 dilution, Jackson Immuno Research) was added. After 30 min at 4° C., cells were washed twice and resuspended in 150 μL FACS buffer. Fluorescence intensities were determined by flow cytometry (BD FACSVerse, Franklin Lakes, N.J.) and indicated as the median fluorescence intensity (MFI-Median) for U937 cells and ExpiCHO-S cells. Curves were fitted by nonlinear regression using the sigmoidal dose-response equation with variable slope (four parameters) in GraphPad Prism (version 7.02 for Windows, GraphPad, San Diego, Calif.). EC₅₀ values were calculated as the concentration in μg/mL that gives a response half way between bottom and top of the curve, when using a 4-parameter logistic fit.
# [10] = molecular target: human SIRPαBIT (huSIRPαBIT), protein antigen (human) (UniProt P78324); assay: ELISA, antigen coated
# [11] = molecular target: human SIRPβ1v1 (huSIRPβ1v1) (human) (UniProt O00241); assay: ELISA, antigen coated
# [12] = molecular target: T1, human SIRPα1 (huSIRPα1), protein antigen; assay: ELISA, antigen coated
# Description: as §2
# T2 sequence (Q9P1W8 29-360 limits assumed): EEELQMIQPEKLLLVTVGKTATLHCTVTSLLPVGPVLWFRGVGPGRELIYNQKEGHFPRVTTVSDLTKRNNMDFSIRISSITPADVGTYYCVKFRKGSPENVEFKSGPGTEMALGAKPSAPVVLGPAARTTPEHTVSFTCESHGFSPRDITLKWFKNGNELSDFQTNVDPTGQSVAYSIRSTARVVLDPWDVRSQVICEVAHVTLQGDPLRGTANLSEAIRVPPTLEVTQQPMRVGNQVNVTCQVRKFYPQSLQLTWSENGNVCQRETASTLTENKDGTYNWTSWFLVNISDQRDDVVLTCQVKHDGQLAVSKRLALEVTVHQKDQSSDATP
# T3 sequence (Q5TFQ8 30-371 limits assumed): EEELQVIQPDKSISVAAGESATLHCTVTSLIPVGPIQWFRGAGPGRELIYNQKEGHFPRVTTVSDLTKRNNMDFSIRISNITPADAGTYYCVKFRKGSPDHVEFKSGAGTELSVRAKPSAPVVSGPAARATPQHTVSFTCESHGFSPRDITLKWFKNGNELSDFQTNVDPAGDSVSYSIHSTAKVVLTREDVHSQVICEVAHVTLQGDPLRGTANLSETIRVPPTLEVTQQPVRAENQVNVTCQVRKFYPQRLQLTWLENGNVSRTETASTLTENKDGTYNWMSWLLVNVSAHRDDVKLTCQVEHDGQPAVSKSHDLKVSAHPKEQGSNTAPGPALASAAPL
# Sequence of human SIRPαBIT (huSIRPαBIT), protein antigen (human) (P78324 31-370): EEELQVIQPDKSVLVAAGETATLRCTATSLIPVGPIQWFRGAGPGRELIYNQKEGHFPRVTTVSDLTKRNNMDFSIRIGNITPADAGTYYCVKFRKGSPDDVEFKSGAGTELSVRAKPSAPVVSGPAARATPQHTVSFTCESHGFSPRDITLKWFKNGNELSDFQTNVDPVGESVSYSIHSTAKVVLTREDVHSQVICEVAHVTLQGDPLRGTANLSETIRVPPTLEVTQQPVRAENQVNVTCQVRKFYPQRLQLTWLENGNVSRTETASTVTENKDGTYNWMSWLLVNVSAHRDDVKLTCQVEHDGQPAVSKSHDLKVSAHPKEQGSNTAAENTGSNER
# Sequence of human SIRPαBIT expressed on cells (human) (P78324 31-504): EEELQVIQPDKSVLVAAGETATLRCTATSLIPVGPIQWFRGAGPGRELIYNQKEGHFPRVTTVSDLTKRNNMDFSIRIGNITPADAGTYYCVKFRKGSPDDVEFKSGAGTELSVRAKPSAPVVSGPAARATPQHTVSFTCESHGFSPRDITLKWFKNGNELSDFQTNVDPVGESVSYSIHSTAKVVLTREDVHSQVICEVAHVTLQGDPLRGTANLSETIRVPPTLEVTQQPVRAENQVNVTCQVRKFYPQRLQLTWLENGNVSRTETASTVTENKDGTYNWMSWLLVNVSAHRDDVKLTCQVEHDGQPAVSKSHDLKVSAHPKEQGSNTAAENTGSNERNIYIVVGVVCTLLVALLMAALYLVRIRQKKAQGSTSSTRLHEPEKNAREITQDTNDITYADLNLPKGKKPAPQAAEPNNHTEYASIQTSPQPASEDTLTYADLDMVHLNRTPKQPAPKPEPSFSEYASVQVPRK
# Sequence of human SIRPβ1v1 (huSIRPβ1v1) (human) (O00241 30-371): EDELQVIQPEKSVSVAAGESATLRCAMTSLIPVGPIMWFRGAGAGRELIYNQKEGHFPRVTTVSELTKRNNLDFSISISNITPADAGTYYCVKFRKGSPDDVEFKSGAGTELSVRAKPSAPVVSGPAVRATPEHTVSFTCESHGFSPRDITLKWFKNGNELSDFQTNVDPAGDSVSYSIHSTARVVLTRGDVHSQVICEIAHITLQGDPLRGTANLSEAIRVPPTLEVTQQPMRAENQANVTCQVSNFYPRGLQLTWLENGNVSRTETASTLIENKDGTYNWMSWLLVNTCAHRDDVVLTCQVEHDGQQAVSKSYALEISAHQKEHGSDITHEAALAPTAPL
# T1 sequence (P78324 other isoform, or with tags, fused parts or gaps limits assumed): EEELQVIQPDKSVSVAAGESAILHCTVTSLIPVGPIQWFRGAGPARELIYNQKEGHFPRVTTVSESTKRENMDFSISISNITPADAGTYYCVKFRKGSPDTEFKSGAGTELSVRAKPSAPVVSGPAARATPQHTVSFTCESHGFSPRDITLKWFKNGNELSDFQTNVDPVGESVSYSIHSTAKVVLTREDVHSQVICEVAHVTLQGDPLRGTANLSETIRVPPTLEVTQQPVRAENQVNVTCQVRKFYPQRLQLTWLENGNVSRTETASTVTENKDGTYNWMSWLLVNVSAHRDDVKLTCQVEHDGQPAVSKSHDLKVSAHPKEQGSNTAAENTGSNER
Molecule,Kd [1],Kd [2],Kd [3],EC50 [4],EC50 [5],EC50 [6],EC50 [7],EC50 [8],EC50 [9],EC50 [10],EC50 [11],EC50 [12]
SE5A5 (antibody),2.6 nM,2.2 nM,49 nM,,,,,,,,,
B1,< 0.01 nM,0.011 nM,< 0.01 nM,0.09 µg/mL,,,,,,,,
B2,< 0.01 nM,,,0.17 µg/mL,0.21 µg/mL,> 100 µg/mL,> 100 µg/mL,0.335 µg/mL,0.07 µg/mL,0.02 µg/mL,0.014 µg/mL,
B3,,,,0.11 µg/mL,,0.047 µg/mL,> 100 µg/mL,0.03 µg/mL,,0.026 µg/mL,> 100 µg/mL,0.023 µg/mL
B4,,,,0.25 µg/mL,,0.017 µg/mL,0.034 µg/mL,0.011 µg/mL,,0.009 µg/mL,0.013 µg/mL,0.009 µg/mL
B5,,,,0.16 µg/mL,,,,,,,,
B6,,,,0.23 µg/mL,,,,,,,,
B7,,,,,,0.058 µg/mL,0.043 µg/mL,0.305 µg/mL,,0.021 µg/mL,,0.039 µg/mL
B8,,,,,,0.024 µg/mL,> 100 µg/mL,0.033 µg/mL,,0.02 µg/mL,> 100 µg/mL,0.021 µg/mL
B9,< 0.01 nM,< 0.01 nM,< 0.01 nM,,,,,,,,,

# Reference: patent publication US20220195063A1 (BYONDIS B V, published 2022)
